According to US20210040232A1 (Regeneron, published 2021):

T1: soluble Macaca fascicularis CTLA-4 expressed with a C-terminal myc-myc-polyhistidine tag (Macaca fascicularis)
T1 construct: soluble protein; also called mf CTLA-4.mmh; mfCTLA4.mmh
T1 chain: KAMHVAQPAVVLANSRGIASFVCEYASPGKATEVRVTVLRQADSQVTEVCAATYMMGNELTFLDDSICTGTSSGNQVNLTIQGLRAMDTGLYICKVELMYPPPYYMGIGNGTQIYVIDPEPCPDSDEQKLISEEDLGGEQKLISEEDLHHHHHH


Assays:
[1] = molecular target: T2, recombinant hCTLA-4-mFc (human CTLA-4 extracellular domain with a C-terminal Fc portion of mouse IgG2a) (human); experiment: competition ELISA, 400 pM hCTLA-4-mFc on plate-coated hB7-2-hIgG1-6His
T2 construct: also called dimeric CTLA-4 protein

[2] = molecular target: T2, recombinant hCTLA-4-mFc (human CTLA-4 …); experiment: competition ELISA, 200 pM hCTLA-4-mFc on plate-coated hB7-1-hIgG1-6His
[3] = molecular target: T3, human CTLA-4 (amino acids M1-N223) on stably transfected VI-fibroblast cells (human, UniProt P16410 36-223); experiment: ECL cell binding, VI-fibroblast/hCTLA-4 cells;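 also: antibodies bound to the cells on carbon electrode plates, detected via SULFO-TAG anti-IgG secondary (1 h, RT), electrochemiluminescence read as RLU over a concentration range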
T3 construct: also called VI-fibroblast/hCTLA-4

[4] = molecular target: T2, recombinant hCTLA-4-mFc (human CTLA-4 …); experiment: competition ELISA, 400 pM hCTLA-4-mFc on plate-coated hB7-2-hIgG1-6His; * value below theoretical bottom of assay
[5] = molecular target: T2, recombinant hCTLA-4-mFc (human CTLA-4 …); experiment: competition ELISA, 200 pM hCTLA-4-mFc on plate-coated hB7-1-hIgG1-6His; * value below theoretical bottom of assay
[6] = molecular target: T1, soluble Macaca fascicularis CTLA-4 …; experiment: SPR, mAb capture, 25 C
[7] = molecular target: T4, soluble human CTLA-4 expressed with a C-terminal myc-myc-polyhistidine tag (human); experiment: SPR, mAb capture, 25 C
T4 construct: soluble protein; also called hCTLA-4.mmh; hCTLA4.mmh
T4 sequence (chain, as listed by the source limits assumed): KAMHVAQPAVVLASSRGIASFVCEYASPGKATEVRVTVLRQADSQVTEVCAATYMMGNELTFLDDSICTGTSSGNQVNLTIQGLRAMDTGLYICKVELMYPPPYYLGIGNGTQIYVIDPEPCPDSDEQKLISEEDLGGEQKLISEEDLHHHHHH

T2 sequence (chain, as listed by the source limits assumed): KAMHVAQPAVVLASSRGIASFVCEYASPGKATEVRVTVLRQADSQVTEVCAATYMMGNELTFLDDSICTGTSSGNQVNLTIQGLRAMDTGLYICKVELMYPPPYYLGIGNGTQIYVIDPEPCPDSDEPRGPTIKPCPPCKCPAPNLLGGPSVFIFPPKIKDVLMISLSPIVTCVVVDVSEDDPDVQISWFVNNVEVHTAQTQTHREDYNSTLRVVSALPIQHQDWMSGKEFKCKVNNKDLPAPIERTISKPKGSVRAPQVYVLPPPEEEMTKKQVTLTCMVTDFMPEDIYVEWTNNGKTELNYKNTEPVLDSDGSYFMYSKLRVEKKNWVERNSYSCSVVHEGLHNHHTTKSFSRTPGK
T3 sequence (P16410 36-223 limits assumed): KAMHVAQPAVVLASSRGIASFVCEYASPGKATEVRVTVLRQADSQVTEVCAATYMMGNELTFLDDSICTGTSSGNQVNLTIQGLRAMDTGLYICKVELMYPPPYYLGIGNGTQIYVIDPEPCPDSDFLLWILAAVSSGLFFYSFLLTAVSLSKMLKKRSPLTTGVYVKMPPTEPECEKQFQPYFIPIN

Row | % Blockade [1] [%] | % Blockade [2] [%] | EC50 [3] [nM] | ratio of RLU signal to parental VI-fibroblast at 0.4 nM Ab [3] [ratio] | IC50 [4] [nM] | IC50 [5] [nM] | Kd [6] [nM] | koff [6] [s⁻¹] | kon [6] [M⁻¹ s⁻¹] | t1/2 [6] [min] | Kd [7] [nM] | koff [7] [s⁻¹] | kon [7] [M⁻¹ s⁻¹] | t1/2 [7] [min] | IC50 [2] [nM] | Binder
1 | 100 | 99 | 0.075 | 23 | 0.19 | 0.094 | 2.14 | 0.00101 | 472000 | 11.5 | 1.53 | 0.000741 | 484000 | 15.6 |  | H1H19281P (antibody, human IgG1, V domains shown) VH: QVQLVESGGGVVQPGRSLRLSCAASGLTFSYYGMHWVRQAPGKGLEWVAVISYDGSNKYYADSVKGRFTISRDNSKNTLYLQMNSLRAEDAAVYYCAKDLGGDDYYGMDVWGQGTTVTVSS VL: EIVLTQSPGTLSLSPGERATLSCRASQSVSRTYLAWYQQKPGQAPRLLIYGAFSRATGIPDRFSGSGSGTDFTLTISRLEPEDFAVYYCQQYGSSPYTFGQGTKLEIK
2 | 100 | 98 | 0.4 | 15 | 0.19 |  | 1.22 | 0.000435 | 356000 | 26.6 | 1.2 | 0.000474 | 394000 | 24.4 | 0.1 | H1H19269P (antibody, human IgG1, V domains shown) VH: EVQLVESGGGLVQPGGSLKLSCAASGFTFSGSAMHWVRQASGKGLEWVGRIRGKANSFATAYSASVKGRFTISRDDSKNTASLQMNSLRTEDTAVYFCTREDQQLVRPYYYHYGMDVWGQGTTVTVSS VL: DIQMTQSPSSLSASVGDRVTITCRTSQSITNYLNWYQQKPGKAPKLLIYATASLQSGVPSRFSGSGSETDFTLTISSLQPEDFATYYCQQSYSTPLTFGGGTKVEIK
